Here are results for four molecules from patent publication US12358959B2, “Compositions and methods for oligodendrocyte development” (CHILDREN'S MEDICAL CENTER CORPORATION, priority 2016, dated 2025).

Assay [1] addresses Transglutaminase 2 (Tgm2), mouse, endogenous (mixed glial cell lysate / microglia-derived) (mouse) (UniProt P21981). In words: streptavidin pull-down of biotinylated GPR56^N-mFc from mixed glial cell lysate, tryptic peptide mass spectrometry.
Assay [2] has as its target Plectin (Plec), mouse, endogenous (mixed glial cell lysate) (mouse) (UniProt Q9QXS1). The assay is described as above.
Another assay deals with T1, GPR56^N (Mus musculus, UniProt Q8K209).
T1 construct: Using the soluble N-terminal fragment of GPR56 (GPR56^N); made in house
In words: In vitro biotinylation/proteomics pull-down from mixed glial cell lysate with mass spectrometry. As to conditions: peptide sequences specific for binding to GPR56^N.
Description: To identify the ligand of GPR56 in OPCs, an in vitro biotinylation/proteomics approach was employed using single-step capture on streptavidin beads to purify the binding partner(s) of GPR56 (FIGS. 2A-2B). Proteins with more than five identified tryptic peptides in the Mass Spectrometry (MS) output from three independent experiments are listed at Table 1.
(§1) GPR56^N and GPR56^Ndel fusions proteins with either mFc or hFc tag were generated as previously described (Luo et al. Proc Natl Acad Sci USA 108, 12925-12930, 2011). BirA enzyme was used to in vitro biotinylate GPR56^N-mFc-biotag protein as previously described (De Laurenzi and Melino Mol Cell Biol 21, 148-155, 2001). Mixed glial cell lysate was incubated with biotinylated GPR56^N protein in lysis buffer [20 mM Hepes (pH 7.3), 150 mM NaCl, and 5 mM MgCl2] with protein inhibitor mixture (Roche Molecular Biochemicals) and 1% Brij 96 (Fluka). Streptavidin beads (Sigma) were used to affinity purify immunocomplexes. GPR56-associated proteins were eluted in 2×SDS loading buffer, subjected to SDS/PAGE. The whole lane was used for MS at the Taplin Biological Mass Spectrometry at Havard Medical School. MS data were searched against the mouse International Protein Index (IPI mouse 339) database using the protein identification software Mascot (v2.2.04, Matrix Sciences) (Luo et al. Proc Natl Acad Sci USA 108, 12925-12930, 2011).
as §1, with “al.,” for “al.”, “(Stacey et al., J” for “(De Laurenzi and Melino Mol Cell”, “Chem 277, 29283-29293, 2002).” for “21, 148-155, 2001).”, “(20” for “[20”, “[pH 7.3],” for “(pH 7.3),”, “MgCl2)” for “MgCl2]”

The subject of assay [3] is oligodendrocyte precursors (OPCs). In words: OPC proliferation on laminin-111 or fibronectin with recombinant TG2. In kind it is cell-based, mouse. An excerpt: P=0.70 (control vs. TG2-W241A); **P=0.0088 (TG2 vs. TG2-W241A). […] FIG. 16D depicts a Western blot of active RhoA (top panel) and total RhoA (bottom panel) in the corpus callosum (CC) of Tgm2^+/+ and Tgm2^−/− mice. FIG. 16E is a graph showing that the relative level of active RhoA to total RhoA was diminished in the CC of Tgm2^−/− mice compared to […]. *P=0.0207, unpaired t-test, N=3 per genotype. FIG. 16F depicts a Western blot of GPR56^N in the supernatant of HEK 293T cell culture after exposed to either TG2 or TG2+laminin-111 (top panel), GTP-RhoA (middle panel) and total RhoA (lower panel) in HEK 293T cell pellet exposed to either TG2 or TG2+laminin-111. FIG. 16G is a graph showing that released GPR56 NTF was increased in the presence of both TG2 and laminin-111. ***P=0.0002; One-way ANOVA followed by Tukey post-hoc test, F (2,6)=49.66, n.s. P=0.95 (control vs. TG2); ***P=0.0003 (control vs. TG2+laminin-111); ***P=0.0004 (TG2 vs. TG2+laminin-111); N=3 per treatment group. FIG. 16H is a graph showing that the relative level of GTP-RhoA to total RhoA was increased in the presence of both TG2 and laminin-111, corresponding to the increased GPR56 NTF in the supernatant. **P=0.0028; One-way ANOVA followed by Tukey post-hoc test, F (2,6)=18.19, n.s. P=0.75 (control vs. TG2); **P=0.0035 (control vs. TG2+laminin-111); **P=0.0071 (TG2 vs. TG2+laminin-111) N=3 per treatment group. Error bars are mean±s.e.m in FIGS. 16E, 16G, and 16H.
To establish conditions for mechanistic investigation of the function of TG2 on OPC GPR56 during myelination and remyelination, in vitro experiments were performed with wt and Gpr56^−/− oligodendrocyte precursors (OPCs) and human recombinant TG2. […] TG2 is an extracellular protein with intrinsic transamidation activity, capable of cross-linking ECM proteins, including laminin-111 (Aeschlimann et al., J Biol Chem 267, 11316-11321, 1992; Belkin, FEBS J 278, 4704-4716, 2011). […] To confirm that TG2 regulates OPC proliferation in a GPR56-dependent manner, OPCs derived from P5 Gpr56^+/+ or Gpr56^−/− pups were cultured in the presence of laminin-111, with or without recombinant TG2. TG2-associated proliferation was attenuated in Gpr56^−/− OPCs (FIG. 16C), further supporting a GPR56-dependent TG2 function on OPC proliferation.
Oligodendrocyte precursor cells (OPCs) were isolated from mixed male and female P5-8 Gpr56^+/+ or Gpr56^−/− mouse forebrains as previously described (Wang et al., Neuron 29, 603-614, 2001; Watkins et al., Neuron 60, 555-569, 2008). Briefly, OPCs were purified by negatively selecting with mouse anti-Thy 1.2 (Serotec, Cat #MCA02R) and mouse anti-GalC (Millipore, Cat #MAB342), followed by mouse anti-04 (04 hybridoma supernatant) for positive selection. After releasing OPCs from the 04 plate by trypsinization, cells were resuspended in proliferation media containing PDGF-AA and NT-3 (PreproTech). OPCs were plated on coverslips coated with poly-D-lysine before coating with laminin I (R&D Systems, Cat #3400-010-01) or fibronectin (Millipore, Cat #341668) as previously described (Dugas et al., J Neurosci 26, 10967-10983, 2006). After 24 hr, TG2 (2 nM) was added to the cultures and incubated for an additional 24 hr before fixation with 4% PFA and staining for PDGFRα and Ki67.

T1 sequence (Q8K209 26-382 limits assumed): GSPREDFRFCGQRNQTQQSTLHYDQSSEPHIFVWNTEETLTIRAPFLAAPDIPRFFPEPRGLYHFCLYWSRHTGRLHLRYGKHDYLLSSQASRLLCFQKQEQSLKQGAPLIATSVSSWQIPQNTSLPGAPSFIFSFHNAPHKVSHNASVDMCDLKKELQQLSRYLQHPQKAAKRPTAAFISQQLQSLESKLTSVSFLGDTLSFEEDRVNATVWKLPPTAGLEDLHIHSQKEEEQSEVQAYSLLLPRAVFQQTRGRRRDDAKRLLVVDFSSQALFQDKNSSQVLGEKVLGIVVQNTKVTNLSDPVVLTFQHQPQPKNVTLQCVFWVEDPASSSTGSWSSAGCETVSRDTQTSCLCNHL
Sequence of Transglutaminase 2 (Tgm2), mouse, endogenous (mixed glial cell lysate / microglia-derived) (mouse) (P21981 2-686 limits assumed): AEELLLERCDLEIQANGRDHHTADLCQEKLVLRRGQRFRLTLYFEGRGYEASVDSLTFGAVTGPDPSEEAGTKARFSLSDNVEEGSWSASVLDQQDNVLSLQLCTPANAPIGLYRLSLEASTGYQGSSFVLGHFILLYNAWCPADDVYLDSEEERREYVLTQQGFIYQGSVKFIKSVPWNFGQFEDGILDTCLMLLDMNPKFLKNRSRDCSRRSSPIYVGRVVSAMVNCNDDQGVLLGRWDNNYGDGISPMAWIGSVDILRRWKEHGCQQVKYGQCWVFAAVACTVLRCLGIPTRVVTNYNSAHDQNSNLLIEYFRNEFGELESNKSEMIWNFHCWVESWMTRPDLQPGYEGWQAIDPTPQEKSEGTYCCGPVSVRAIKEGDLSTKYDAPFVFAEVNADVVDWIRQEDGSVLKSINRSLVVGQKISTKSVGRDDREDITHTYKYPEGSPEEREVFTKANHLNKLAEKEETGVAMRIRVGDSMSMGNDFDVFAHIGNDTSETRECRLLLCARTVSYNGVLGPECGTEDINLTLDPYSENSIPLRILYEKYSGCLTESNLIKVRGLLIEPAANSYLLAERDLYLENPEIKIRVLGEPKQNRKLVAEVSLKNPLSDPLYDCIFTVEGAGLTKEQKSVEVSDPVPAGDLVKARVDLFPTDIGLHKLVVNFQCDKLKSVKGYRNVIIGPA

In assay [1], “biotinylated GPR56^N-mFc-biotag protein (Fc fusion)” yielded a Peptide Number (Exp1) of 19 peptides, a Peptide Number (Exp2) of 20 peptides and a Peptide Number (Exp3) of 17 peptides. In assay [2], this molecule had a Peptide Number (Exp1) of 21 peptides, a Peptide Number (Exp2) of 22 peptides and a Peptide Number (Exp3) of 23 peptides.
As to “Plectin (Plec): protein from mixed glial cell lysate purified with GPR56^N”, in the assay with GPR56^N (experiment 1), the “Peptide Number (Exp1)” value is listed as 21. Moreover, in the assay with GPR56^N (experiment 2), the “Peptide Number (Exp2)” value came to 22. The “Peptide Number (Exp3)” value with GPR56^N (experiment 3) is listed as 23.
Turning to fibronectin [reference compound], the OPC proliferation result in assay [3] (wt OPCs, fibronectin as specificity control in place of laminin-111, with recombinant TG2) is listed as “inert”.

B1: TG2-W241A: transamidation-inactive, enzymatic dead mutant TG2 protein (protein)
chain: MAEELVLERCDLELETNGRDHHTADLCREKLVVRRGQPFWLTLHFEGRNYEASVDSLTFSVVTGPAPSQEAGTKARFPLRDAVEEGDWTATVVDQQDCTLSLQLTTPANAPIGLYRLSLEASTGYQGSSFVLGHFILLFNAWCPADAVYLDSEEERQEYVLTQQGFIYQGSAKFIKNIPWNFGQFEDGILDICLILLDVNPKFLKNAGRDCSRRSSPVYVGRVVSGMVNCNDDQGVLLGRADNNYGDGVSPMSWIGSVDILRRWKNHGCQRVKYGQCWVFAAVACTVLRCLGIPTRVVTNYNSAHDQNSNLLIEYFRNEFGEIQGDKSEMIWNFHCWVESWMTRPDLQPGYEGWQALDPTPQEKSEGTYCCGPVPVRAIKEGDLSTKYDAPFVFAEVNADVVDWIQQDDGSVHKSINRSLIVGLKISTKSVGRDEREDITHTYKYPEGSSEEREAFTRANHLNKLAEKEETGMAMRIRVGQSMNMGSDFDVFAHITNNTAEEYVCRLLLCARTVSYNGILGPECGTKYLLNLNLEPFSEKSVPLCILYEKYRDCLTESNLIKVRALLVEPVINSYLLAERDLYLENPEIKIRILGEPKQKRKLVAEVSLQNPLPVALEGCTFTVEGAGLTEEQKTVEIPDPVEAGEEVKVRMDLLPLHMGLHKLVVNFESDKLKAVKGFRNVIIGPA
As for B1, the “OPC proliferation, wild type TG2 vs enzymatic dead mutant” value in assay [3] (versus control, One-way ANOVA, Tukey post-hoc) is “failed to promote OPC proliferation and n.s”.
